Laboratory results: paper PMC4258113 (Journal of proteome research, 2013)
Where no end group is shown, it is not given here. Me3 = trimethyl-lysine (trimethylated lysine)

T1: GST-tagged chromodomain (a.a. 1-90) of Drosophila melanogaster polycomb protein (Drosophila melanogaster, UniProt P26017 1-90)
T1 sequence (looked up): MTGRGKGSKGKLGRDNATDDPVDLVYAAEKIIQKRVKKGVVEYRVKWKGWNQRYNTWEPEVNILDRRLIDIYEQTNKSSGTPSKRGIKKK


biological target: T1, GST-tagged chromodomain (a.a. 1-90) of …; test: peptide or protein array

Binding result, binds:
DSGKAKAK(Me3)A [trimethylated histone peptide DSGKAKAKA (H2AV, lysine site 15)]
ASKDLKVK(Me3)R [trimethylated histone peptide ASKDLKVKR (H2AZ, H2AV, lysine site 79)]
LATKAARK(Me3)S [trimethylated histone peptide LATKAARKS (H3.3, lysine site 27)]
MDVVYALK(Me3)R [trimethylated histone peptide MDVVYALKR (H4, lysine site 91)]
GRIHRHLK(Me3)S [trimethylated histone peptide GRIHRHLKS (H2AZ, lysine site 37)]
REIRRYQK(Me3)S [trimethylated histone peptide REIRRYQKS (H3.3, lysine site 56)]
IQAVLLPK(Me3)K [trimethylated histone peptide IQAVLLPKK (H2A1 and other H2A, lysine site 117)]
PRKQLATK(Me3)A [trimethylated histone peptide PRKQLATKA (H3.3, lysine site 23)]
RTKQTARK(Me3)S [trimethylated histone peptide RTKQTARKS (H3.3, lysine site 9)]
GGAKRHRK(Me3)V [trimethylated histone peptide GGAKRHRKV (H4, lysine site 20)]
EGTKAVTK(Me3)Y [trimethylated histone peptide EGTKAVTKY (H2B1A and other H2B, lysine site 117)]
RIHRLLRK(Me3)G [trimethylated histone peptide RIHRLLRKG (H2A1A, lysine site 35)]
